According to patent US10907134B2, “Mutated genes for the catalytic protein of oplophorus luciferase and use thereof” (JNC CORPORATION, priority 2013, dated 2021):

Assays:
[1] = Substrate specificities of KAZ mutants (ZZ-fused, crude enzyme), bis-CTZ; assay type: biochemical; conditions: 1 μg substrate; for Relative Luminescence Activity bis-CTZ Int.: integrated for 60 seconds; for Relative Luminescence Activity bis-CTZ Imax: maximum intensity of luminescence
Protocol: (§1) The coelenterazine analogues used for substrate specificity studies were synthesized by the methods described in publications. Specifically, bis-coelenterazine was synthesized by the method described in Nakamura et al. (1997) Tetrahedron Lett. 38: 6405-6406; furimazine by the method described in Hall et al. (2012) ACS Chem. Biol. […]; and, 6h-coelenterazine, f-coelenterazine and 6h-f-coelenterazine by the methods described in Inouye et al (2013) Biochem. Biophys. Res. Commun. 437: 23-28.
(§2) DTT was added to the crude enzyme solutions obtained in EXAMPLE 17 at a final concentration of 1 mM and the mixtures were allowed to stand in an ice water for more than 5 hours in the same manner as Example 8. A luminescence reaction was started by the addition of 1 μL each of the crude enzyme solutions to 100 μL of TE containing 1 μg of coelenterazine (manufactured by JNC Corp.) or its analogues. The luminescence activities were determined using a luminometer (manufactured by Atto Inc.: AB2200) for 60 seconds, and the maximum intensity of luminescence (Imax) was shown as relative luminescence activity.

[2] = Substrate specificities of KAZ mutants (ZZ-fused, crude enzyme), CTZ; assay type: biochemical; conditions: for Relative Luminescence Activity CTZ Int. / Relative Luminescence Activity CTZ Imax: ZZ-fused crude enzyme, 1 μg substrate; for Relative Luminescence Activity CTZ Int.: integrated for 60 seconds; for Relative Luminescence Activity CTZ Imax: maximum intensity of luminescence; for Substrate specificity: coelenterazine versus its analogues
Protocol: as §1, §2

[3] = system: CHO-K1 cells; experiment: Luminescence activity of KAZ mutants expressed in animal culture cells with signal peptide of Gaussia luciferase for secretion; assay type: cell-based, Chinese hamster; conditions: pcDNA3-GLsp- vectors; for Relative Luminescence Activity (Imax) (%) Cell Extracts / Relative Luminescence Activity (Imax) (%) Culture Medium: Table 5, CHO-K1, 48 hours, 0.5 μg coelenterazine; for Relative Luminescence Activity (Imax) (%) Cell Extracts: 5 μL cell extracts; for Relative Luminescence Activity (Imax) (%) Culture Medium: 5 μL culture medium; for Relative Luminescence Activity (%, Imax) Cell Extracts / Relative Luminescence Activity (%, Imax) Culture Medium: Table 11, CHO-K1, coelenterazine
Method in brief: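 CHO-K1 cells were transfected with the KAZ mutant plasmid plus an internal standard vector. After 48 h, culture medium and sonicated cell extracts were collected. 5 μL of each was added to 0.5 μg coelenterazine in 30 mM Tris-HCl pH 7.6, 10 mM EDTA, and luminescence was read for 60 s, with maximum intensity (Imax) expressed as a percentage.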

[4] = Substrate specificities of KAZ mutants (ZZ-fused, crude enzyme), 6h-CTZ; assay type: biochemical; conditions: 1 μg substrate; for Relative Luminescence Activity 6h-CTZ Int.: integrated for 60 seconds; for Relative Luminescence Activity 6h-CTZ Imax: maximum intensity of luminescence
Protocol: as §1, §2

[5] = Substrate specificities of KAZ mutants (ZZ-fused, crude enzyme), f-CTZ; assay type: biochemical; conditions: 1 μg substrate; for Relative Luminescence Activity f-CTZ Int.: integrated for 60 seconds; for Relative Luminescence Activity f-CTZ Imax: maximum intensity of luminescence
Protocol: as §1, §2

[6] = Luminescence activity of ZZ-fused KAZ mutants in crude enzyme solutions; assay type: biochemical; conditions: for Relative Luminescence Activity (Imax): ZZ-fused (pCold-ZZ-P-), 1 mM DTT; for Luminescence activity, times higher than that of wild KAZ: coelenterazine (Table 4); for Luminescence activity, fold higher than dnKAZ / Luminescence activity, fold higher than wild KAZ: coelenterazine (Table 9)
Method in brief: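 E. coli BL21 crude extracts held with 1 mM DTT (final) on ice over 5 hours. Reaction started with 1 μL extract in 100 μL TE containing 1 μg coelenterazine; luminescence read for 60 seconds, maximum intensity (Imax) reported as relative activity.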

[7] = Substrate specificities of KAZ mutants (ZZ-fused, crude enzyme), h-CTZ; assay type: biochemical; conditions: 1 μg substrate; for Relative Luminescence Activity h-CTZ Int.: integrated for 60 seconds; for Relative Luminescence Activity h-CTZ Imax: maximum intensity of luminescence
Protocol: as §1, §2

[8] = Table 4, 1 μL crude enzyme solution, 1 μg coelenterazine
[9] = Table 9, crude enzyme solution, coelenterazine
[10] = ZZ-fused, crude enzyme solution

| Molecule | Relative Luminescence Activity bis-CTZ Int. [1] | Relative Luminescence Activity bis-CTZ Imax [1] | Relative Luminescence Activity CTZ Int. [2] | Relative Luminescence Activity CTZ Imax [2] | Relative Luminescence Activity (Imax) (%) Cell Extracts [3] | Relative Luminescence Activity (Imax) (%) Culture Medium [3] | Relative Luminescence Activity 6h-CTZ Int. [4] | Relative Luminescence Activity 6h-CTZ Imax [4] | Relative Luminescence Activity f-CTZ Int. [5] | Relative Luminescence Activity f-CTZ Imax [5] | Relative Luminescence Activity (Imax) [6, 8] | Relative Luminescence Activity (Imax) [6, 9] | Luminescence activity, times higher than that of wild KAZ [6, 10] | Relative Luminescence Activity h-CTZ Int. [7] | Relative Luminescence Activity h-CTZ Imax [7] | Substrate specificity [2] | Relative Luminescence Activity (%, Imax) Cell Extracts [3] | Relative Luminescence Activity (%, Imax) Culture Medium [3] | Luminescence activity, fold higher than dnKAZ [6, 10] | Luminescence activity, fold higher than wild KAZ [6, 10] | further results |
| --- | --- | --- | --- | --- | --- | --- | --- | --- | --- | --- | --- | --- | --- | --- | --- | --- | --- | --- | --- | --- | --- |
| KAZ-A54I: KAZ with single amino acid substitution A54I, SEQ ID NO: 6 (protein) FTLADFVGDWQQTAGYNQDQVLEQGGLSSLFQALGVSVTPIQKVVLSGENGLKIDIHVIIPYEGLSGFQMGLIEMIFKVVYPVDDHHFKIILHYGTLVIDGVTPNMIDYFGRPYPGIAVFDGKQITVTGTLWNGNKIYDERLINPDGSLLFRVTINGVTGWRLCENILA | 3.4 | 3.0 | 9.0 | 8.4 | 2.4% | less than 0.01% | 2.1 | 1.6 | 4.9 | 8.2 | 8.9 | 8.4 | 8.9 times | 6.9 | 11.8 | – | – | – | – | – | Luminescence activity compared with dnKAZ ([6]; ZZ-fused, crude enzyme solution, coelenterazine): comparable to dnKAZ |
| KAZ-V44I-A54I: KAZ mutant with two amino acid substitutions V44I and A54I, SEQ ID NO: 10 (protein) FTLADFVGDWQQTAGYNQDQVLEQGGLSSLFQALGVSVTPIQKIVLSGENGLKIDIHVIIPYEGLSGFQMGLIEMIFKVVYPVDDHHFKIILHYGTLVIDGVTPNMIDYFGRPYPGIAVFDGKQITVTGTLWNGNKIYDERLINPDGSLLFRVTINGVTGWRLCENILA | 5.9 | 5.7 | 12.7 | 15.3 | – | – | 5.6 | 4.5 | 5.2 | 11.3 | – | 15.3 | – | 8.7 | 17.9 | high substrate specificity for coelenterazine | 13.9% | 0.07% | 1.6 fold | 15 fold | – |
| KAZ-Y138I: KAZ with single amino acid substitution Y138I, SEQ ID NO: 8 (protein) FTLADFVGDWQQTAGYNQDQVLEQGGLSSLFQALGVSVTPIQKVVLSGENGLKADIHVIIPYEGLSGFQMGLIEMIFKVVYPVDDHHFKIILHYGTLVIDGVTPNMIDYFGRPYPGIAVFDGKQITVTGTLWNGNKIIDERLINPDGSLLFRVTINGVTGWRLCENILA | 1.5 | 1.3 | 5.9 | 7.5 | 1.0% | less than 0.01% | 0.3 | 0.2 | 2.4 | 2.4 | 5.9 | 7.5 | 5.9 times | 3.0 | 3.9 | – | – | – | – | – | – |
| KAZ-V44I: KAZ with single amino acid substitution V44I, SEQ ID NO: 4 (protein) FTLADFVGDWQQTAGYNQDQVLEQGGLSSLFQALGVSVTPIQKIVLSGENGLKADIHVIIPYEGLSGFQMGLIEMIFKVVYPVDDHHFKIILHYGTLVIDGVTPNMIDYFGRPYPGIAVFDGKQITVTGTLWNGNKIYDERLINPDGSLLFRVTINGVTGWRLCENILA | 1.4 | 1.1 | 5.9 | 7.2 | 0.7% | less than 0.01% | 0.6 | 0.4 | 2.0 | 2.1 | 6.6 | 7.2 | 6.6 times | 2.2 | 3.7 | – | – | – | – | – | – |
| KAZ-V44I-Y138I: KAZ mutant with two amino acid substitutions V44I and Y138I, SEQ ID NO: 12 (protein) FTLADFVGDWQQTAGYNQDQVLEQGGLSSLFQALGVSVTPIQKIVLSGENGLKADIHVIIPYEGLSGFQMGLIEMIFKVVYPVDDHHFKIILHYGTLVIDGVTPNMIDYFGRPYPGIAVFDGKQITVTGTLWNGNKIIDERLINPDGSLLFRVTINGVTGWRLCENILA | 8.3 | 7.9 | 9.9 | 17.1 | – | – | 5.3 | 4.3 | 7.4 | 13.3 | – | 17.1 | – | 9.7 | 19.1 | high substrate specificity for coelenterazine | 11.2% | less than 0.01% | 1.8 fold | 17 fold | – |
